To fix the notation:
B1: 6-phosphofructokinase, liver type: PKGIα substrate, phospho site S775 (protein, UniProt P30835 2-780, looked up)
ATP-dependent …: ATVDLEKLRMSGAGKAIGVLTSGGDAQGMNAAVRAVTRMGIYVGAKVFLIYEGYEGLVEGGENIKPANWLSVSNIIQLGGTIIGSARCKAFTTREGRLAAAYNLLQHGITNLCVIGGDGSLTGANIFRNEWGSLLEELVKEGKISESTAQNYAHLSIAGLVGSIDNDFCGTDMTIGTDSALHRIMEVIDAITTTAQSHQRTFVLEVMGRHCGYLALVSALASGADWLFIPEAPPEDGWENFMCERLGETRSRGSRLNIIIIAEGAIDRHGKPISSSYVKDLVVQRLGFDTRVTVLGHVQRGGTPSAFDRVLSSKMGMEAVMALLEATPDTPACVVSLSGNQSVRLPLMECVQVTKDVQKAMDEKRFDEAIQLRGRSFENNWKIYKLLAHQKVSKEKSNFSLAILNVGAPAAGMNAAVRSAVRTGISEGHTVYVVHDGFEGLAKGQVQEVGWHDVAGWLGRGGSMLGTKRTLPKPHLEAIVENLRTYNIHALLVIGGFEAYEGVLQLVEARGRYEELCIVMCVIPATISNNVPGTDFSLGSDTAVNAAMESCDRIKQSASGTKRRVFIVETMGGYCGYLATVTGIAVGADAAYVFEDPFNIHDLKANVEHMTEKMKTDIQRGLVLRNEKCHEHYTTEFLYNLYSSEGRGVFDCRTNVLGHLQQGGAPTPFDRNYGTKLGVKAMLWMSEKLRDVYRKGRVFANAPDSACVIGLRKKVVAFSSVTELKKETDFEHRMPREQWWLNLRLMLKMLAHYRISMADYVSGELEHVTRRTLSIDKGF
modifications: phosphorylated at S775
B2: Alpha-2-macroglobulin receptor-associated protein: PKGIα substrate, phospho site S245 (protein, UniProt Q99068 34-360, looked up)
Alpha-2-macroglobulin …: HGGKYSREKNEPEMAAKRESGEEFRMEKLNQLWEKAKRLHLSPVRLAELHSDLKIQERDELNWKKLKVEGLDGDGEKEAKLVHNLNVILARYGLDGRKDTQTVHSNALNEDTQDELGDPRLEKLWHKAKTSGKFSSEELDKLWREFLHYKEKIHEYNVLLDTLSRAEEGYENLLSPSDMTHIKSDTLASKHSELKDRLRSINQGLDRLRKVSHQGYGPATEFEEPRVIDLWDLAQSANFTEKELESFREELKHFEAKIEKHNHYQKQLEISHQKLKHVESIGDPEHISRNKEKYVLLEEKTKELGYKVKKHLQDLSSRVSRARHNEL
modifications: phosphorylated at S245
B3: Trifunctional enzyme subunit beta, mitochondrial: PKGIα substrate, phospho site S198 (protein, UniProt Q60587 35-475, looked up)
Trifunctional enzyme subunit …: SAPAVQTKSKKTLAKPNLKNIVVVEGVRIPFLLSGTSYKDLMPHDLARAALSGLLYRTNIPKDVVDYIIFGTVIQEVKTSNVAREAALGAGFSDKTPAHTVTMACISSNQAMTTAVGLIASGQCDVVVAGGVELMSDVPIRHSRNMRKMMLDLNKAKTLAQRLSLLTKFRLNFLSPELPAVAEFSTNETMGHSADRLAAAFAVSRMEQDKYALRSHSLAKKAQDEGHLSDIVPFKVPGKDTVSKDNGIRPSSLEQMAKLKPAFIKPYGTVTAANSSFLTDGASAMLIMSEDRALAMGYKPKAYLRDFIYVSQDPKDQLLLGPTYATPKVLEKAGLTMNDIDAFEFHEAFSGQILANFKAMDSDWFAQNYMGRKTKVGAPPLEKFNIWGGSLSLGHPFGATGCRLVMAAANRLRKDGGQYALVAACAAGGQGHAMIVEAYPK
modifications: phosphorylated at S198
B4: C-1-tetrahydrofolate synthase, cytoplasmic: PKGIα substrate, phospho site T545 (protein, UniProt P27653 1-935, looked up)
C-1-tetrahydrofolate …: MAPAGILNGKVVSAQIRNRLKTQVTQMQEQVPGFTPGLAILQVGDRDDSNLYINVKLKAAQEIGIKATHIKLPRTSTESEVLKYVISLNEDATVHGFIVQLPLDSENSINTEAVINAIAPEKDVDGLTSINAGKLARGDLKDCFIPCTPKGCLELIKETGVQIAGRHAVVVGRSKIVGAPMHDLLLWNNATVTTCHSKTADLDKEVNKGDILVVATGQPEMVKGEWIKPGAVVIDCGINYVPDDTKPNGRKVVGDVAYDEAKEKASFITPVPGGVGPMTVAMLMQSTVESAQRFLKKFKPGKWTIQYNKLNLKTPVPSDIAISRSCKPKLIGNLAREIGLLTEEVELYGETKAKVLLSALDRLKHQPDGKYVVVTGITPTPLGEGKSTTTIGLVQALGAHLHQNVFACVRQPSQGPTFGIKGGAAGGGYSQVIPMEEFNLHLTGDIHAITAANNLVAAAIDARIFHELTQTDKALFNRLVPSVNGVRKFSDIQIRRLRRLGIEKTDPAALTDDEINRFARLDIDPETITWQRVLDTNDRFLRKITIGQAPTEKGHTRTAQFDISVASEIMAVLALTSSLEDMRARLGKMVVASSKKGEPISCEDLGVSGALTVLMKDAIKPNLMQTLEGTPVFVHAGPFANIAHGNSSIIADRIALKLVGPEGFVVTEAGFGADIGMEKFFNIKCRYSGLQPHVVVLVATVRALKMHGGGPTVTAGLPLPKAYTEEDLDLVEKGFSNLRKQIENARMFGVPVVVAMNAFKTDTDTELDLIGRLSREHGAFDAVKCTHWAEGGQGALALAQAVQRASQAPSSFQLLYDLKLSVEDKIRIIAQKIYGADDIELLPEAQNKAEIYTKQGFGNLPICMAKTHLSLSHNPEQKGVPTGFVLPIRDIRASVGAGFLYPLVGTMSTMPGLPTRPCFYDIDLDPETEQVNGLF
modifications: phosphorylated at T545
B5: 1-phosphatidylinositol 4,5-bisphosphate phosphodiesterase gamma-1: PKGIα substrate, phospho site S1233 (protein, UniProt P10686 2-1290, looked up)
1-phosphatidylinositol …: AGVGTPCANGCGPSAPSEAEVLHLCRSLEVGTVMTLFYSKKSQRPERKTFQVKLETRQITWSRGADKIEGSIDIREIKEIRPGKTSRDFDRYQEDPAFRPDQSHCFVILYGMEFRLKTLSLQATSEDEVNMWIKGLTWLMEDTLQAATPLQIERWLRKQFYSVDRNREDRISAKDLKNMLSQVNYRVPNMRFLRERLTDFEQRSGDITYGQFAQLYRSLMYSAQKTMDLPFLETNTLRTGERPELCQVSLSEFQQFLLEYQGELWAVDRLQVQEFMLSFLRDPLREIEEPYFFLDELVTFLFSKENSVWNSQLDAVCPETMNNPLSHYWISSSHNTYLTGDQFSSESSLEAYARCLRMGCRCIELDCWDGPDGMPVIYHGHTLTTKIKFSDVLHTIKEHAFVASEYPVILSIEDHCSIAQQRNMAQHFRKVLGDTLLTKPVDIAADGLPSPNQLKRKILIKHKKLAEGSAYEEVPTSVMYSENDISNSIKNGILYLEDPVNHEWYPHYFVLTSSKIYYSEETSSDQGNEDEEEPKEASGSTELHSSEKWFHGKLGAGRDGRHIAERLLTEYCIETGAPDGSFLVRESETFVGDYTLSFWRNGKVQHCRIHSRQDAGTPKFFLTDNLVFDSLYDLITHYQQVPLRCNEFEMRLSEPVPQTNAHESKEWYHASLTRAQAEHMLMRVPRDGAFLVRKRNEPNSYAISFRAEGKIKHCRVQQEGQTVMLGNSEFDSLVDLISYYEKHPLYRKMKLRYPINEEALEKIGTAEPDYGALYEGRNPGFYVEANPMPTFKCAVKALFDYKAQREDELTFTKSAIIQNVEKQDGGWWRGDYGGKKQLWFPSNYVEEMINPAILEPEREHLDENSPLGDLLRGVLDVPACQIAIRPEGKNNRLFVFSISMPSVAQWSLDVAADSQEELQDWVKKIREVAQTADARLTEGKMMERRKKIALELSELVVYCRPVPFDEEKIGTERACYRDMSSFPETKAEKYVNKAKGKKFLQYNRLQLSRIYPKGQRLDSSNYDPLPMWICGSQLVALNFQTPDKPMQMNQALFMAGGHCGYVLQPSTMRDEAFDPFDKSSLRGLEPCVICIEVLGARHLPKNGRGIVCPFVEIEVAGAEYDSTKQKTEFVVDNGLNPVWPAKPFHFQISNPEFAFLRFVVYEEDMFSDQNFLAQATFPVKGLKTGYRAVPLKNNYSEDLELASLLIKIDIFPAKENGDLSPFSGTSLRERASDASSQLFHVRAREGSFEARYQQPFEDFRISQEHLADHFDSRERRAPRRTRVNGDNRL
modifications: phosphorylated at S1233
B6: Protein NDRG2: PKGIα substrate, phospho site S332 (protein, UniProt Q9QYG0 2-371, looked up)
Protein NDRG2: AELQEVQITEEKPLLPGQTPETAKEAELAARILLDQGQTHSVETPYGSVTFTVYGTPKPKRPAIFTYHDVGLNYKSCFQPLFRFGDMQEIIQNFVRVHVDAPGMEEGAPVFPLGYQYPSLDQLADMIPCILQYLNFSTIIGVGVGAGAYILSRYALNHPDTVEGLVLINIDPNAKGWMDWAAHKLTGLTSSIPDMILGHLFSQEELSGNSELIQKYRGIIQHAPNLENIELYWNSYNNRRDLNFERGGETTLKCPVMLVVGDQAPHEDAVVECNSKLDPTQTSFLKMADSGGQPQLTQPGKLTEAFKYFLQGMGYMASSCMTRLSRSRTASLTSAASIDGSRSRSRTLSQSSESGTLPSGPPGHTMEVSC
modifications: phosphorylated S332

The subject of the first experiment is PKGIα (analogue-sensitive M438G), disulfide-activated. As to the kind of experiment: Chemical genetic phosphoproteomic screen, disulfide-activated PKGIα M438G versus unactivated control. The class given is biochemical, human PKGIα; substrates in rat heart homogenate. As to conditions: disulfide-activated PKGIα M438G vs basal; 1 h, 30 °C, pH 7.5, rat heart homogenate; label-free LC–MS/MS; n=4; * P<0.05 Dunnett: only phospholamban S16. The gist of the method: (§1)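 Analogue-sensitive human PKGIα mutants (M438G, air-oxidized to disulfide dimer; C42S/M438G, cGMP-activated), expressed in 293-F cells, thiophosphorylate substrates in rat left-ventricle lysate (20 mg ml) using N6-alkylated ATPγS. Thiophosphopeptides are recovered by covalent capture and identified with sites by LC–MS/MS, each compared against an unactivated control.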
For B1, the “Log2 fold change in phosphorylation, Disulfide versus control” value worked out at 1.48.
As to B2, the “Log2 fold change in phosphorylation, Disulfide versus control” value is given as 0.32.
The same measure, in the same setting: with B3 the figure was 0.04; with B4, 1.48.
As to B5, the “Log2 fold change in phosphorylation, Disulfide versus control” value came to 1.82.
Turning to B6, the “Log2 fold change in phosphorylation, Disulfide versus control” value was determined as 1.91.

For the next experiment, the system named is PKGIα (analogue-sensitive C42S/M438G), cGMP-activated. As to the kind of experiment: Chemical genetic phosphoproteomic screen, cGMP-activated PKGIα C42S/M438G versus unactivated control. It is filed as biochemical, human PKGIα; substrates in rat heart homogenate. As to conditions: PKGIα C42S/M438G + 100 μM cGMP vs basal; 1 h, 30 °C, pH 7.5, rat heart homogenate; label-free LC–MS/MS; n=4; * P<0.05 Dunnett: all values except phospholamban S16. The gist of the method: as §1
As to B1, the “Log2 fold change in phosphorylation, cGMP versus control” value (shortened to “Log2 fold change … cGMP versus control”) is 4.13*.
For B2, the “Log2 fold change … cGMP versus control” value is listed as 2.64*.
Take B3: the “Log2 fold change … cGMP versus control” value is on record as 3.44*.
The same measure, in the same setting: with B4 the figure was 3.68*; with B5, 4.50*.
As to B6, the “Log2 fold change … cGMP versus control” value is 3.42*.
